Laboratory results taken from publication PMC9964033.

Columns and labels:
Gls = assay: interactome comparison (volcano plot); details: CPEB3 and S240-242A expressed in mouse neuroblastoma N2A cells; read off a plot
Wdr77 = assay: interactome comparison (volcano plot); details: CPEB3 and S240-242A expressed in mouse neuroblastoma N2A cells; read off a plot

**Q.** How did the other: Log2(Fold Change (Mut/FL)) (Gls) turn out when “CPEB3 (full-length), expressed in mouse neuroblastoma N2A cells (from UniProt Q7TN99) S240A; S241A; S242A” was run?
**A.** 2.8

**Q.** What about the other: Log2(Fold Change (Mut/FL)) (Wdr77) of the same substance?
**A.** -4.2
